Test results as given in patent US6261772.

Experiments:
[1] = target: T1, VP16-HA-Tap full length (Homo sapiens) (UniProt Q9UBU9); assay: one_hybrid
T1 sequence: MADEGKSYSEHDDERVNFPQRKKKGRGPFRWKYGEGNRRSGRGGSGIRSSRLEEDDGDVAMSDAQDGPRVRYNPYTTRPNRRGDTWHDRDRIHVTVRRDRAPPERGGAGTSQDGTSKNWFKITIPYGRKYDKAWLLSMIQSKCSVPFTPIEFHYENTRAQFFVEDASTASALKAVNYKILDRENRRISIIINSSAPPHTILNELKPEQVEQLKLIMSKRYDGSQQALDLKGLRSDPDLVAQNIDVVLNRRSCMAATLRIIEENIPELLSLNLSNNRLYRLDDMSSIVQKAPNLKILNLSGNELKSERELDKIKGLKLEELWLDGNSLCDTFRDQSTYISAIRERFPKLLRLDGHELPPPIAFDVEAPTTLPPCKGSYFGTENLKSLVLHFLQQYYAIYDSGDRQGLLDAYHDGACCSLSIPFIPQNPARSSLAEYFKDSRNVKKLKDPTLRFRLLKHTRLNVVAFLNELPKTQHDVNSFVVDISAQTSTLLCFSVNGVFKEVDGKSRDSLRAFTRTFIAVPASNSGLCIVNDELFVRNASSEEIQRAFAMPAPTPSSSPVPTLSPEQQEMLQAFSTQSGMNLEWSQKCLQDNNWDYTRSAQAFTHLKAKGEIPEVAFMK

[2] = target: T2, Tat-Tap full length (Homo sapiens) (UniProt Q9UBU9); assay: cell_activity; settings: 293T
T2 sequence: T1 sequence

Substance	activity ([1]; yeast three-hybrid) [mOD/ml]	activity ([1]; yeast three-hybrid beta-gal, VP16 alone 11) [mOD/ml]	activity (fold activation) [2]
iron response element	< 4	–	–
HIV-1 TAR	< 4	–	–
CTE antisense	< 4	–	–
MPMV CTE	–	602	20
